According to the supplement of paper PMC9170038:

Test system: MS2 coat protein
Experiment: apparent KD of MS2 coat protein; designed switch direction (-1 OFF switch, 1 ON switch): -1; higher = weaker reporter binding
Summary of the method: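 RNA switches sharing common flanks were transcribed by stalled E. coli RNA polymerase on Illumina chips. A doubling series of SNAP-549-labelled MS2 coat protein, from 0.7 or 1.5 nM to 3 µM, was applied in Tris-HCl pH 7.5 buffer with KCl, MgCl2, BSA, DTT, tRNA and Tween-20. Each step lasted 0.8–1.5 h at the bottom of the series and 10–20 min at the top. Normalised cluster fluorescence was curve-fitted, giving apparent KD as the per-design median over clusters.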

[1] = Eterna round: R95, input ligand: FMN 200 uM
[2] = Eterna round: R95, input ligand: microRNA oligo, concentration not stated
[3] = Eterna round: R95, input ligand: none
[4] = input ligand: microRNA oligo, concentration not stated

Sequence | apparent KD of MS2 coat protein (input ligand: FMN 200 uM) [nM] | apparent KD of MS2 coat protein (input ligand: none) [nM] | apparent KD of MS2 coat protein [1] [nM] | apparent KD of MS2 coat protein [2] [nM] | apparent KD of MS2 coat protein [3] [nM] | apparent KD of MS2 coat protein [4] [nM]
AUUUACGGAGGAUAUACUUGAGGAUCACCCAAGUGGAGUCCCGUUUGGGCGGUAAAUAGUAGAAGGCCGUCCCA [jl-ex3-4.45 ViennaUCT mod] (Eterna round: R97, puzzle: Exclusion 3) | 20.2 | 13.3 |  |  |  | 
AUUUAGAGAGGAUAUAUAUUUUAAAACAUGAGGAUCACCCAUGUAAUUUUAUGGGAGAAAAUAGAAGGCUCAUUUA [JMFs Solution 1] (puzzle: Exclusion 5) |  |  | 114 | 205 | 197 | 
AUUUUAACAUAGGAUAUCGAAUUUAUUAUUUAACGAGAAGGAUGAACAUGAGGAUCACCCAUGUGGUAUCAUGA [Mat - Exclusion 6 - JL Mod - D21] (puzzle: Exclusion 6) |  |  | 72.8 | 40.6 | 45.9 | 
CAAAAGGAAGGAUAUGAUAAGCAGGACAUGAGGAUCACCCAUGUGACUGCCUCGUGGACAUCAGAAGGUCCAGGAC [Erqureorle] (puzzle: Exclusion 5) |  |  | 43.2 | 17.2 | 13.8 | 
CAAACCAGAGGAUAUGCGCAUAGAUCAGACUUUGUUUCUGAACAUGAGGAUCACCCAUGUAGAAGGCUGUAAAA [Ex2 #83] (Eterna round: R97, puzzle: Exclusion 2) | 28.1 | 29.7 |  |  |  | 
CAACCACGUGCAGGAUAUGCGAAGUGAUUCGGUGGUACCACAGCGUAAACAUGAGGAUCACCCAUGUAGAAGGGCAUGAGGGCU [Eternabot solution 16] (Eterna round: R96, puzzle: Exclusion NG 2) | 352 | 123 |  |  |  | 119
CAAGCUUUGCGAGGAUAUGAUGGCCUAUAUGCCUCAGAAGGCGCAGAUACUUGAGGAUCACCCAAGUGAUGCAAAUACGAAAAU [Mutated MS2 EX1.17] (Eterna round: R96, puzzle: Exclusion NG 1) | 71.3 | 20 |  |  |  | 17.4
CAAUGACAUGAGGAUCACCCAUGUGAGGAUAUGGAGCGAGACCGCGCGGUCGCGUACACCAGAAGGCGCAGGCG [1st #66] (Eterna round: R97, puzzle: Exclusion 1) | 89.3 | 37.9 |  |  |  | 
CAAUGUGCUGAGGAUAUCUGCAGGUUGGGCCUGGGAGAAGGCGGCACAUGAGGAUCACCCAUGUGACCGAAAUA [EX6 A.17] (Eterna round: R97, puzzle: Exclusion 6) | 78.5 | 39.3 |  |  |  | 
CAAUUCUGAGGAUAUCGAUUUUUGUACAUGAGGAUCACCCAUGUCCUUUUUAUUUAAUCCCGAGAAGGCAGUGUAU [JR_E5_Sub097] (puzzle: Exclusion 5) |  |  |  | 23.8 |  | 
CACAAGCUUUUUUGAUGCAUUUUAGUGGGUGUGGGUUGGACAUGAGGAUCACCCAUGUUUAUGAAGCUCGAUCUUUU [JR_SV3TOV2_Sub081] (puzzle: Sensor v3, turn-off variant 2) |  |  | 92.7 | 170 | 124 | 
CACAAGCUUUUUUGUUGCUUUUUAGUUGGUGUGUGAUUUACAUGAGGAUCACCCAUGUUAUUGAUGCUCGAUCUUUU [JR_SV3TOV2_Sub082] (puzzle: Sensor v3, turn-off variant 2) |  |  | 71.1 | 143 | 97.3 | 
CACAGACAUGAGGAUCACCCAUGUUAGGAUAUGGAUAGCCUGCCAAGAAUAGGCGCCUCCAGAAGGAACUGGGA [Eternabot (Original) Solution 36] (Eterna round: R97, puzzle: Exclusion 1) | 141 | 61.1 |  |  |  | 
CACCCUGAUGUCAGGAUAUGCGCGUCGCGCCUCGAGCAGAAGGGACAUGAGGAUCACCCAUGUUGUCUCUUGGG [Orisvedixe] (puzzle: Brourd's mod of Exclusion 4) |  |  |  | 44.5 |  | 
CACCGGGUAGGAUAUACUUGAGGAUCACCCAAGUGGGAACCUACUCGGUGGUCCUUAAGUAGAAGGACCAACGG [Ex 2] (Eterna round: R97, puzzle: Exclusion 3) | 11.5 | 11.9 |  |  |  | 
CACCGUAACAGAGGAUAUCAAACAUGAGGAUCACCCAUGUAAUAAAUGAGAAUUUCGAAUGUACCUGAGAAGGCUGAAACCGGC [Ostricism 83 - Jieux - Exclusion NG 2] (Eterna round: R96, puzzle: Exclusion NG 2) |  |  |  |  |  | 25.9
CACCGUUAGGGAGGAUAUCGUACAUGAGGAUCACCCAUGUAAUAAAUGAGAAUUUCGGAUGUAUGCGAGAAGGCCCAAAUCGGC [Ostracism 42 - Jieux - Exclusion NG 2] (Eterna round: R96, puzzle: Exclusion NG 2) | 36.8 | 48.4 |  |  |  | 35.8
CACCGUUAGUGAGGAUAUCGUACAUGAGGAUCACCCAUGUAAUAAAUGAGAAUUUCGGAUGUAUGCGAGAAGGCACAAAUCGGC [Ostracism 40 - Jieux - Exclusion NG 2] (Eterna round: R96, puzzle: Exclusion NG 2) | 37.1 | 45.2 |  |  |  | 34.7

Sequence | apparent KD of MS2 coat protein (input ligand: FMN 200 uM) [nM] | apparent KD of MS2 coat protein (input ligand: none) [nM] | apparent KD of MS2 coat protein [1] [nM] | apparent KD of MS2 coat protein [2] [nM] | apparent KD of MS2 coat protein [3] [nM] | apparent KD of MS2 coat protein [4] [nM]
CACCUCGUAGCAGGAUAUUAGAGCUUCCGCAAAUGAGAAGGGCUACGAAACACUUGAGGAUCACCCAAGUACCGUGGUCCUCUA [Mutated MS2 EX1.11] (Eterna round: R96, puzzle: Exclusion NG 1) | 19.7 | 22.3 |  |  |  | 14
CACGUCUGAGGAUAUCGUUUUUUGUACAUGAGGAUCACCCAUGUCCAAUUUUGUAUAUUACGAGAAGGCAGUGGAA [JR_E5_Sub090] (puzzle: Exclusion 5) |  |  |  | 12.3 |  | 
CACUUGGUAGGAUAUGAAGGGAGGAACAUGAGGAUCACCCAUGUCCUGGAAUCCAGUCCGUCAGAAGGACCUGAGC [Eternabot (L1) Solution 44] (Eterna round: R97, puzzle: Exclusion 5) | 24.4 | 21.6 |  |  |  | 
CAGAAACAUGAGGAUCACCCAUGUGAGGAUAUGAAAAAGAAAAGAAAAGAAAGAAGAAUCAGAAGGCACAAAGA [salish99-ex1_r3_085] (puzzle: Exclusion 1) |  |  | 31.3 | 23.9 | 31.8 | 
CAGAAGCAAGGAUAUACAACGGGCCACAGAGCGAGAGGGCAACAUGAGGAUCACCCAUGUAGAAGGUGCGUAAC [Timaina] (puzzle: Exclusion 2) |  |  | 47.5 | 97.4 | 74.4 | 
CAGCCUCUUGUGAGGAUAUUCUGCUAAGCGAGGCGGAAGAAGGUACAUGAGGAUCACCCAUGUUGGCGGAAUAA [Eternabot (Original) Solution 21] (Eterna round: R97, puzzle: Brourd's mod of Exclusion 4) | 167 | 37.6 |  |  |  | 
CAGCUGAAUGUGAGGAUAUGUCGAGCUUCGGCUCGAUAGAAGGCACAUGAGGAUCACCCAUGUCUCAACAGCUG [BmEx4/2-C1] (Eterna round: R97, puzzle: Brourd's mod of Exclusion 4) | 166 | 35.1 |  |  |  | 
CAGGAUAGAGGAUAUACAUAGAUACAGAUUCAUGUAAUCCUACAUGAGGAUCACCCAUGUAGAAGGCUAUCCUG [Fiskers Ex 2 - 16] (puzzle: Exclusion 2) |  |  |  | 15.4 |  | 
CAGGAUAGAGGAUAUACAUAGAUACAGAUUCGUGUGAUCCUACAUGAGGAUCACCCAUGUAGAAGGCUAUCCUG [Fiskers Ex 2 - 23] (Eterna round: R96, puzzle: Exclusion 2) | 82 | 587 |  |  |  | 392
CAGGAUAGAGGAUAUACAUAGAUACAGAUUCGUGUGAUCCUACAUGAGGAUCACCCAUGUAGAAGGCUAUCCUG [Fiskers Ex 2 - 23] (puzzle: Exclusion 2) |  |  |  | 210 |  | 
CAGGGUAGAGGAUAUACGUAGGUACAGAUCCGUGUGAUCCUACAUGAGGAUCACCCAUGUAGAAGGCUAGCCUG [LRO-Excl2-06] (puzzle: Exclusion 2) |  |  |  | 332 |  | 
CAGGGUAGAGGAUAUACGUAGGUACAGAUCUGUGUGAUCCUACAUGAGGAUCACCCAUGUAGAAGGCUAGCCUG [LRO-Excl2-07] (puzzle: Exclusion 2) |  |  |  | 305 |  | 
CAGGUCUGAAAGGAUAUCCACGCCUGCGGGCCAGGAGAAGGUUCGACUUGAGGAUCACCCAAGUGCCGAGUCCA [Ervezaar] (Eterna round: R97, puzzle: Exclusion 6) | 33.2 | 20.6 |  |  |  | 
CAGGUGUUAGGAUAUCGGAGAUCGAGACCGACGGGAUGAGCCGAGAAGGAACAUGAGGAUCACCCAUGUAGGUG [JR_Exclu4_Sub034] (Eterna round: R96, puzzle: Exclusion 4) |  |  |  |  |  | 304
CAGGUGUUAGGAUAUCGGAGAUCGAGACCGACGGGAUGAGCCGAGAAGGAACAUGAGGAUCACCCAUGUAGGUG [JR_Exclu4_Sub034] (puzzle: Exclusion 4) |  |  | 166 | 400 | 414 | 
CAGUACUGAGGAUAUACAUGAGGAUCACCCAUGUCCCAAAAGUAGGAUACUACUAUUAGUAGAAGGCAGUACUG [Fiskers Ex 3 828 mod 25] (Eterna round: R96, puzzle: Exclusion 3) | 498 | 46.1 |  |  |  | 43.2
CAGUACUGAGGAUAUACAUGAGGAUCACCCAUGUCCCAAAAGUAGGAUACUACUAUUAGUAGAAGGCAGUACUG [Fiskers Ex 3 828 mod 25] (puzzle: Exclusion 3) |  |  |  | 38.9 |  | 
